The values below are quoted from earlier work in publication PMC3079778.

Data set [1] has as its target CYP1A2 (Oryctolagus cuniculus) (UniProt P00187). Put plainly: FRET.
Data set [2] deals with CYP2B4 (Oryctolagus cuniculus) (UniProt P00178). The data set is described as follows: FRET.
Chain of UniProt P00178 (P00178 whole entry): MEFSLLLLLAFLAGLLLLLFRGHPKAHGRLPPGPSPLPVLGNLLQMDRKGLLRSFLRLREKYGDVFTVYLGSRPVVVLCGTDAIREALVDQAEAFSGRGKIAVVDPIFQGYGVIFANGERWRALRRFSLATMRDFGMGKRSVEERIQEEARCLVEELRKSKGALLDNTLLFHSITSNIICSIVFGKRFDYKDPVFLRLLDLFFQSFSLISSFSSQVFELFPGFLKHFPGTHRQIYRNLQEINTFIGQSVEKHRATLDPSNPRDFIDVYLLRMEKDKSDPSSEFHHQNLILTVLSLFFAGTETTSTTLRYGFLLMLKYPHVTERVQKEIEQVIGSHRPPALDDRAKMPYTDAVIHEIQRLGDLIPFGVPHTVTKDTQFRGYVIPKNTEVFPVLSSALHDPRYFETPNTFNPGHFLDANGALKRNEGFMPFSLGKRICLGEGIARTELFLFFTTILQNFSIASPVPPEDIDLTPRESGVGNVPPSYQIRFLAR

Chain of UniProt P00187 (P00187 2-516): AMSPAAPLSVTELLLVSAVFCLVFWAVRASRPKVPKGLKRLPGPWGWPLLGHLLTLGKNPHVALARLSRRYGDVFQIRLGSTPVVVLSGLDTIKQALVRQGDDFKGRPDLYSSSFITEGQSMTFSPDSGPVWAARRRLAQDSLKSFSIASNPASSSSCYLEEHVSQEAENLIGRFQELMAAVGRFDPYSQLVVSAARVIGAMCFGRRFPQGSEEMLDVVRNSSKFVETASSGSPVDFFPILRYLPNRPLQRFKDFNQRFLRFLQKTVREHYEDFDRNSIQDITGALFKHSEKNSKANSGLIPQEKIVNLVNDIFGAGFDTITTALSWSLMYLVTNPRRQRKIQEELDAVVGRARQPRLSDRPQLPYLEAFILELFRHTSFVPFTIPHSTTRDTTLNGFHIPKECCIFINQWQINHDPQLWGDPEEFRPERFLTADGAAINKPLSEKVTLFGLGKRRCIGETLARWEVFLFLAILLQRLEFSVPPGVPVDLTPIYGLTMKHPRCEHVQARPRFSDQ

Usually Kd stands for the constant that tells how readily two partners part at equilibrium. CPR (from UniProt P00389): the Kd in data set [1] and in data set [2] was 40 nM in each case.
